{"source": "the supplement of paper PMC7125110", "parents": {"B1": {"name": "glmS ribozyme (parent)", "chain": "AUAAAAGCGCCAGAACUACAGAAAUGUAGUUGACGAGGAGGAGGUUUAUCGAAUUUUCGGCGGAUGCCUCCAAA"}}, "note": "± gives the standard error. Fewer inactive variants are shown than the library holds."}
{"variants_of": "B1", "assay": "self-cleavage kobs at 10000 uM GlcN6P; higher = faster cleavage; RNA array", "details": "with glucosamine-6-phosphate", "summary_of_the_method": "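A hybridised Cy3 probe tracked barcoded ribozyme variants, transcribed in situ by E. coli RNA polymerase on sequenced MiSeq chips, at 37 °C. The variants received 40 μM to 10 mM glucosamine-6-phosphate in HEPES/KCl/Mg(OAc)2 buffer. kobs came from decay fits and kcat and KM from weighted Michaelis–Menten fits.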", "units": {"self-cleavage kobs at 10000 uM GlcN6P": "s⁻¹"}}
{"variant": "C10U C34A G41U", "self-cleavage kobs at 10000 uM GlcN6P": "< 1e-05"}
{"variant": "A12U U30C G32A A52U U65G C70G", "self-cleavage kobs at 10000 uM GlcN6P": "< 1e-05"}
{"variant": "A12C G32A G35A G51C", "self-cleavage kobs at 10000 uM GlcN6P": "< 1e-05"}
{"variant": "G32U U46A U56G", "self-cleavage kobs at 10000 uM GlcN6P": "3.85e-05 ± 1.2e-05"}
{"variant": "G29U A53C G66A", "self-cleavage kobs at 10000 uM GlcN6P": "0.000258 ± 4.6e-05"}
{"variant": "G13A A42C G60C", "self-cleavage kobs at 10000 uM GlcN6P": "< 1e-05"}
{"variant": "A36C U46G U49G", "self-cleavage kobs at 10000 uM GlcN6P": "0.000106 ± 2.7e-05"}
{"variant": "G32A U55C G60U C61U", "self-cleavage kobs at 10000 uM GlcN6P": "< 1e-05"}
{"variant": "A12G U65G C70U", "self-cleavage kobs at 10000 uM GlcN6P": "0.000133 ± 1.7e-05"}
{"variant": "G13C G35C U49C", "self-cleavage kobs at 10000 uM GlcN6P": "< 1e-05"}
{"variant": "U54A A64C", "self-cleavage kobs at 10000 uM GlcN6P": "0.000157 ± 2.8e-05"}
{"variant": "U49A C50A", "self-cleavage kobs at 10000 uM GlcN6P": "< 1e-05"}
{"variant": "A15U C16U G29U C67A", "self-cleavage kobs at 10000 uM GlcN6P": "0.00151 ± 0.00034"}
{"variant": "A36U U49G G63C", "self-cleavage kobs at 10000 uM GlcN6P": "< 1e-05"}
{"variant": "U30C G51A C67G", "self-cleavage kobs at 10000 uM GlcN6P": "< 1e-05"}
{"variant": "G32A G40U C67U", "self-cleavage kobs at 10000 uM GlcN6P": "< 1e-05"}
{"variant": "C11A G35C G41C", "self-cleavage kobs at 10000 uM GlcN6P": "< 1e-05"}
{"variant": "A15G U30G U46C", "self-cleavage kobs at 10000 uM GlcN6P": "0.000407 ± 0.0001"}
{"variant": "A14G A36C A42U", "self-cleavage kobs at 10000 uM GlcN6P": "< 1e-05"}
{"variant": "U31C G66C", "self-cleavage kobs at 10000 uM GlcN6P": "8.11e-05 ± 1.3e-05"}
{"variant": "A14U A53U C68U", "self-cleavage kobs at 10000 uM GlcN6P": "0.00114 ± 0.00036"}
{"variant": "A6C U56A C68G", "self-cleavage kobs at 10000 uM GlcN6P": "< 1e-05"}
{"variant": "A33G G40U A52G C58A", "self-cleavage kobs at 10000 uM GlcN6P": "< 1e-05"}
{"variant": "C8U G13U A15U C16U G32C A48U", "self-cleavage kobs at 10000 uM GlcN6P": "< 1e-05"}
{"variant": "A36G A48C C68A", "self-cleavage kobs at 10000 uM GlcN6P": "< 1e-05"}
{"variant": "G32C G37U G44C A52C", "self-cleavage kobs at 10000 uM GlcN6P": "< 1e-05"}
{"variant": "U47C U65G C71U", "self-cleavage kobs at 10000 uM GlcN6P": "0.00338 ± 0.00055"}
{"variant": "G9A A15C C67A", "self-cleavage kobs at 10000 uM GlcN6P": "< 1e-05"}
{"variant": "A12G G13U G40A", "self-cleavage kobs at 10000 uM GlcN6P": "4.65e-05 ± 1.4e-05"}
{"variant": "G32C G66A", "self-cleavage kobs at 10000 uM GlcN6P": "7.35e-05 ± 1.4e-05"}
{"variant": "A53G U56G C71G", "self-cleavage kobs at 10000 uM GlcN6P": "0.00022 ± 5.2e-05"}
{"variant": "C11G A15G G40C U46A G62A A64U", "self-cleavage kobs at 10000 uM GlcN6P": "< 1e-05"}
{"variant": "G9U A14U", "self-cleavage kobs at 10000 uM GlcN6P": "< 1e-05"}
{"variant": "A36G G44U A53C", "self-cleavage kobs at 10000 uM GlcN6P": "< 1e-05"}
{"variant": "C34U A36C", "self-cleavage kobs at 10000 uM GlcN6P": "< 1e-05"}
{"variant": "A14G A15G A33U", "self-cleavage kobs at 10000 uM GlcN6P": "8.09e-05 ± 1.9e-05"}
{"variant": "G38A C61A C71U", "self-cleavage kobs at 10000 uM GlcN6P": "< 1e-05"}
{"variant": "G38U A39G A42C A48U", "self-cleavage kobs at 10000 uM GlcN6P": "< 1e-05"}
{"variant": "A12U C16A C58A", "self-cleavage kobs at 10000 uM GlcN6P": "7.98e-05 ± 1.6e-05"}
{"variant": "G35U A53U U56A", "self-cleavage kobs at 10000 uM GlcN6P": "< 1e-05"}
{"variant": "C50U G51U C70U", "self-cleavage kobs at 10000 uM GlcN6P": "< 1e-05"}
{"variant": "G7A U57C", "self-cleavage kobs at 10000 uM GlcN6P": "< 1e-05"}
{"variant": "U30G G51U U55C C61A", "self-cleavage kobs at 10000 uM GlcN6P": "< 1e-05"}
{"variant": "U30C A53G G66A", "self-cleavage kobs at 10000 uM GlcN6P": "8.63e-05 ± 2.1e-05"}
{"variant": "U31A A33U G35U G38U", "self-cleavage kobs at 10000 uM GlcN6P": "< 1e-05"}
{"variant": "G7C A14U C67U C68G", "self-cleavage kobs at 10000 uM GlcN6P": "< 1e-05"}
{"variant": "G7U C16A G62A", "self-cleavage kobs at 10000 uM GlcN6P": "< 1e-05"}
{"variant": "A14C A42G C61A", "self-cleavage kobs at 10000 uM GlcN6P": "< 1e-05"}
{"variant": "C34A A36C G60A", "self-cleavage kobs at 10000 uM GlcN6P": "< 1e-05"}
{"variant": "G13C G38A G43C C61U", "self-cleavage kobs at 10000 uM GlcN6P": "< 1e-05"}
{"variant": "C34G G59C C61A A64G", "self-cleavage kobs at 10000 uM GlcN6P": "< 1e-05"}
{"variant": "G43C G51U G62U", "self-cleavage kobs at 10000 uM GlcN6P": "< 1e-05"}
{"variant": "C8U G37C C50G A53U C67A", "self-cleavage kobs at 10000 uM GlcN6P": "0.000441 ± 0.00011"}
{"variant": "A33G A48C C50U C70G", "self-cleavage kobs at 10000 uM GlcN6P": "< 1e-05"}
{"variant": "A14G U56C U69C", "self-cleavage kobs at 10000 uM GlcN6P": "0.000368 ± 9.1e-05"}
{"variant": "G9A A36U U65C", "self-cleavage kobs at 10000 uM GlcN6P": "< 1e-05"}
{"variant": "A39G G44A U57A C61U C70U", "self-cleavage kobs at 10000 uM GlcN6P": "< 1e-05"}
{"variant": "C10U C34U A48C", "self-cleavage kobs at 10000 uM GlcN6P": "< 1e-05"}
{"variant": "U30G G41U G43A A48C C71U", "self-cleavage kobs at 10000 uM GlcN6P": "< 1e-05"}
{"variant": "A39U U49G U54G", "self-cleavage kobs at 10000 uM GlcN6P": "0.00053 ± 0.00012"}
{"variant": "U46C G62A G66A C71A", "self-cleavage kobs at 10000 uM GlcN6P": "< 1e-05"}
{"variant": "G41U A53G C71A", "self-cleavage kobs at 10000 uM GlcN6P": "0.000206 ± 4.7e-05"}
{"variant": "A15C U46C G62U", "self-cleavage kobs at 10000 uM GlcN6P": "< 1e-05"}
{"variant": "A33C A52C U57G G63A", "self-cleavage kobs at 10000 uM GlcN6P": "< 1e-05"}
{"variant": "C16G A39U U47A C50G", "self-cleavage kobs at 10000 uM GlcN6P": "< 1e-05"}
{"variant": "G35A A36U G43U", "self-cleavage kobs at 10000 uM GlcN6P": "< 1e-05"}
{"variant": "A42U G62A U69G", "self-cleavage kobs at 10000 uM GlcN6P": "< 1e-05"}
{"variant": "A15C C16G U65G", "self-cleavage kobs at 10000 uM GlcN6P": "0.000462 ± 8e-05"}
{"variant": "U31C A48C", "self-cleavage kobs at 10000 uM GlcN6P": "3.72e-05 ± 7.7e-06"}
{"variant": "G44U U54C", "self-cleavage kobs at 10000 uM GlcN6P": "0.000226 ± 5e-05"}
{"variant": "A6C C8U A36C G37U", "self-cleavage kobs at 10000 uM GlcN6P": "< 1e-05"}
{"variant": "U49A U56A A64C", "self-cleavage kobs at 10000 uM GlcN6P": "< 1e-05"}
{"variant": "A6U A15G G43A C68G", "self-cleavage kobs at 10000 uM GlcN6P": "< 1e-05"}
{"variant": "A1U U2G A3G A5U G44A", "self-cleavage kobs at 10000 uM GlcN6P": "4.04e-05 ± 1.7e-05"}
{"variant": "G35C G51C C58A", "self-cleavage kobs at 10000 uM GlcN6P": "< 1e-05"}
{"variant": "U56C U57A", "self-cleavage kobs at 10000 uM GlcN6P": "8.46e-05 ± 1.3e-05"}
{"variant": "A14U A15C G32A A42U A53U C70U", "self-cleavage kobs at 10000 uM GlcN6P": "< 1e-05"}
{"variant": "A14C A39U A53G", "self-cleavage kobs at 10000 uM GlcN6P": "0.00135 ± 0.0004"}
{"variant": "U30A A39C", "self-cleavage kobs at 10000 uM GlcN6P": "0.00136 ± 0.00028"}
{"variant": "C10G G37A G60U", "self-cleavage kobs at 10000 uM GlcN6P": "< 1e-05"}
{"variant": "A42C U45C C50U", "self-cleavage kobs at 10000 uM GlcN6P": "< 1e-05"}
{"variant": "G13U G43U A64U", "self-cleavage kobs at 10000 uM GlcN6P": "< 1e-05"}
{"variant": "C11G G38U G41A C68G", "self-cleavage kobs at 10000 uM GlcN6P": "< 1e-05"}
{"variant": "U46A C68A C71A", "self-cleavage kobs at 10000 uM GlcN6P": "< 1e-05"}
